# Data published in the supplement of paper PMC10724198.
# ± gives the standard deviation of the averaged measurements.
# Test system: Saccharomyces cerevisiae
# Test: protein stability index of tFT-peptide fusion (C-terminal peptide) (PSI (0-1 scale)); higher = more stable (slower turnover)
# Conditions: genetic background: wild type; temperature: 30 C
# 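Note: PSI is a weighted mean of sequencing reads over stability bins, variants kept only with over 10 reads, mCherry proximal and sfGFP distal, peptide attached via GGGS linker.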
row,Sequence,protein stability index
1,LGVGGRWGVPGA,0.715 ± 0.04
2,LGWGRGGPLSGG,0.6937 ± 0.0018
3,LGWWGVWSWGRG,0.655 ± 0.033
4,LHDICADRSSIL,0.739 ± 0.009
5,LHFYASFPSPLV,0.669 ± 0.044
6,LHGASLCVPPSP,0.5205 ± 0.0013
7,LHKAATADPPRV,0.711 ± 0.02
8,LHKSINPSPHPP,0.6864 ± 0.0066
9,LHLGRLVHGGVD,0.673 ± 0.017
10,LHLPPPLPSTLP,0.671 ± 0.012
11,LHPPLALPRPPP,0.711 ± 0.05
12,LHPPPPPPALTP,0.729 ± 0.068
13,LHRTKHLRKGHK,0.6905 ± 0.0033
14,LIGTAPGITGFN,0.661 ± 0.011
15,LISADTFVHFND,0.725 ± 0.02
16,LISRLVSSLIHT,0.621 ± 0.015
17,LITRLLCSPCSQ,0.605 ± 0.0059
18,LKDLGKQVVTVR,0.587 ± 0.0062
19,LKFLFTYLGFLS,0.532 ± 0.03
20,LKGVVRFISGQD,0.71735 ± 0.00052
21,LKKDVYANNLTD,0.673 ± 0.004
22,LKKEFSGKEIQD,0.743 ± 0.049
23,LKKSYSTPFTHY,0.69 ± 0.048

row,Sequence,protein stability index
1,LKLTFPFWNTGT,0.728 ± 0.034
2,LKNGDINYARFG,0.679 ± 0.083
3,LKQTNQHKVNTD,0.643 ± 0.053
4,LKRDLGGTSTRG,0.6615 ± 0.0057
5,LKRGKIVDRGWY,0.641 ± 0.082
6,LKRMQKYIDMSS,0.714 ± 0.11
7,LKSYHKLKTCSS,0.678 ± 0.061
8,LKTLKHRLRHLE,0.732 ± 0.034
9,LLAFRTVSVGVL,0.5212 ± 0.0014
10,LLCLRGRVTLCP,0.537 ± 0.031
11,LLDVFFPRFFCH,0.611 ± 0.078
12,LLFDQTRIGMDV,0.675 ± 0.038
13,LLFISPPPRCLL,0.75 ± 0.036
14,LLFPFLSFLLPL,0.66 ± 0.037
15,LLFRCGARSAGG,0.676 ± 0.022
16,LLGLVGGVVGLA,0.624 ± 0.01
17,LLGPSGRAIKIQ,0.6659 ± 0.0013
18,LLHCPSRGFLFS,0.851 ± 0.17
19,LLHQSRSQVSFY,0.717 ± 0.093
20,LLILGTPKQDSR,0.67 ± 0.036
21,LLKGPDLLGRAS,0.721 ± 0.051
22,LLLALPSRPPPS,0.666 ± 0.13
23,LLLPNPTPPPPP,0.625 ± 0.0012

row,Sequence,protein stability index
1,LLLPPPVFPPSL,0.683 ± 0.01
2,LLLWCRGGLLGS,0.753 ± 0.024
3,LLPAPLPTALPL,0.65 ± 0.07
4,LLPAPPRLLPSS,0.68 ± 0.024
5,LLPHCRPGSTAA,0.692 ± 0.019
6,LLPPGSSSRVAL,0.733 ± 0.022
7,LLPPPLPPLHSS,0.6828 ± 0.0054
8,LLPPPLPQAPPT,0.708 ± 0.03
9,LLPPPPTPPLNL,0.688 ± 0.033
10,LLPPPVFPPLSP,0.753 ± 0.013
11,LLPPQPYTPLHL,0.679 ± 0.13
12,LLPPTLHPPHLP,0.751 ± 0.0096
13,LLPRQSRYNAHF,0.669 ± 0.075
14,LLPRSSPTPLAH,0.735 ± 0.066
15,LLPSAAKLTLLP,0.77 ± 0.07
16,LLPSAAPPPQFL,0.686 ± 0.035
17,LLPSPLPPHPPP,0.637 ± 0.053
18,LLPSRAPTSIPL,0.686 ± 0.037
19,LLQQILKDYAEI,0.686 ± 0.033
20,LLRDRRQETILK,0.623 ± 0.092
21,LLRPPSAPSTLL,0.706 ± 0.084
22,LLRSEETTIEPF,0.7531 ± 0.004
23,LLRTHTTPKLGG,0.661 ± 0.051

row,Sequence,protein stability index
1,LLSASPASLSFL,0.706 ± 0.054
2,LLSFFLSPPSIL,0.734 ± 0.02
3,LLSHLSPCTRIG,0.606 ± 0.051
4,LLSHPDLPPIPP,0.503 ± 0.086
5,LLSLSGVLLVPP,0.656 ± 0.013
6,LLSLVYSPLSPL,0.664 ± 0.035
7,LLSRLVVRGLVS,0.629 ± 0.087
8,LLSRLWPASSSG,0.672 ± 0.08
9,LLSSFIFSILFF,0.496 ± 0.0085
10,LLTGVPRFSLDS,0.683 ± 0.014
11,LLTSCLLSCCFR,0.671 ± 0.027
12,LLYPALQHVSSV,0.721 ± 0.12
13,LMLFCLGCDMSV,0.576 ± 0.027
14,LMYGCAQHRNRS,0.61 ± 0.033
15,LPAPGRPSPCRL,0.809 ± 0.041
16,LPAPPPHPLSPV,0.7161 ± 0.0063
17,LPAPRFLVPAFL,0.637 ± 0.025
18,LPAPSPPSFPAP,0.743 ± 0.099
19,LPASPGSVPFLF,0.716 ± 0.084
20,LPCPRPVPPSPA,0.626 ± 0.018
21,LPDPPEPHLRLP,0.694 ± 0.025
22,LPDPPLSPPPVR,0.675 ± 0.016
23,LPFLPPPPPLRP,0.694 ± 0.11

row,Sequence,protein stability index
1,LPFRPWLPRSLI,0.68 ± 0.059
2,LPGPDLLSRMAS,0.659 ± 0.019
3,LPHFHPPLDPPA,0.692 ± 0.0079
4,LPHPPTPPLPRP,0.667 ± 0.078
5,LPHSPSLPPAFP,0.708 ± 0.032
6,LPHTRPLPPRVD,0.704 ± 0.015
7,LPILRVVNLMGL,0.5935 ± 0.0048
8,LPISASLLSFPL,0.716 ± 0.048
9,LPLASIYQLRSN,0.713 ± 0.039
10,LPLPPASRSAPP,0.589 ± 0.028
11,LPLPPLLPPPSP,0.68 ± 0.073
12,LPLPPLRSSRPL,0.665 ± 0.036
13,LPLPPSFVHLPF,0.732 ± 0.05
14,LPLPSPLLPPRP,0.712 ± 0.0051
15,LPLRLVPLFSPP,0.722 ± 0.025
16,LPLYSFSVDFSF,0.576 ± 0.0059
17,LPNRRRLFLFPS,0.735 ± 0.05
18,LPPAFRIPHTWY,0.71 ± 0.0071
19,LPPGFPYLSQLP,0.666 ± 0.052
20,LPPHPPREAPPN,0.682 ± 0.083
21,LPPLPPSPPSPR,0.697 ± 0.029
22,LPPPHPPFPPRF,0.715 ± 0.059
23,LPPPHPPTPAPP,0.621 ± 0.075

row,Sequence,protein stability index
1,LPPPLPSTRPVF,0.6943 ± 0.005
2,LPPPPLTLPPPP,0.694 ± 0.02
3,LPPPPPPPPPSP,0.82377 ± 0.00068
4,LPPPPPSRSRPV,0.712 ± 0.039
5,LPPPRPPASPSL,0.677 ± 0.033
6,LPPPSFPSISLF,0.675 ± 0.14
7,LPPPSPPPPPSP,0.68 ± 0.028
8,LPPPTPPPPLLP,0.779 ± 0.093
9,LPPPTSFPSFPP,0.724 ± 0.027
10,LPPRSPLYPLPP,0.613 ± 0.018
11,LPPSPPTVPSPP,0.67 ± 0.027
12,LPPSSLPLPCLL,0.793 ± 0.21
13,LPPSSSPSYIFS,0.744 ± 0.047
14,LPPTPSSPPPPL,0.709 ± 0.06
15,LPPVQARDPNWQ,0.6367 ± 0.0014
16,LPQTVPPPPSPP,0.624 ± 0.06
17,LPRALLLHGHRP,0.771 ± 0.067
18,LPRFRNRFPRRW,0.664 ± 0.036
19,LPRLHLSPASPP,0.611 ± 0.048
20,LPSARSLVSPSP,0.74 ± 0.0092
21,LPSPAFLTPPPL,0.788 ± 0.1
22,LPSPHPPPPPAH,0.727 ± 0.081
23,LPSPISLSPPLP,0.652 ± 0.051

row,Sequence,protein stability index
1,LPSPPPLISLIP,0.644 ± 0.12
2,LPSPRRPPTPSA,0.657 ± 0.015
3,LPSPSSSPPPFP,0.7274 ± 0.0013
4,LPSRLPPQPSPA,0.687 ± 0.071
5,LPTLFPSAPSAI,0.664 ± 0.05
6,LPVPLFPLFLTS,0.573 ± 0.011
7,LPVPTLGRPLSL,0.69 ± 0.034
8,LPVVGLVPPARS,0.5103 ± 0.003
9,LPYSAPPISLTN,0.702 ± 0.011
10,LQCAVPPRDLTS,0.645 ± 0.074
11,LQHCSAPLLTNS,0.74 ± 0.085
12,LQLKNTNKNKTT,0.666 ± 0.047
13,LQPPAPPSPQSD,0.702 ± 0.081
14,LRAPRGEFHWFL,0.684 ± 0.11
15,LRAVCDLTGSRV,0.68 ± 0.072
16,LRCCGGCGVCAL,0.686 ± 0.03
17,LRCLTIILYSMV,0.549 ± 0.033
18,LRCPLPFFSAFF,0.704 ± 0.11
19,LRDIEEIHRRGA,0.782 ± 0.013
20,LRDLLVFCDLFR,0.695 ± 0.0082
21,LRDQEYAMRPPC,0.693 ± 0.08
22,LRDWCMLGELAR,0.742 ± 0.014
